From article PMC7600800

T1: 14-3-3, endogenous, P63104
T1 chain: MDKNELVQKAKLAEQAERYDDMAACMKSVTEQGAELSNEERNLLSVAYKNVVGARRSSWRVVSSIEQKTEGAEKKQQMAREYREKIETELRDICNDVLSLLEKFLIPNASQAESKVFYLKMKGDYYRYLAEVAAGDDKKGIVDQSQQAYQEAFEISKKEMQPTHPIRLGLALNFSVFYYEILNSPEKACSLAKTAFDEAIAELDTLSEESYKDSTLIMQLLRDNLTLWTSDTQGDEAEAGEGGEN


Experiments:
Test in all cases: anti-HA immunoprecipitation, SDS-PAGE and mass spectrometry
[1] = target: heat shock-related 70 kDa protein 2; details: lysates of transfected HEK293 cells; parent: 14
ruvB-like 1 = details: lysates of transfected HEK293 cells; parent: 3
[2] = target: regulator of chromosome condensation isoform c; details: lysates of transfected HEK293 cells; parent: -
lamin-B1 isoform 1 = details: lysates of transfected HEK293 cells; parent: -
[3] = target: dnaJ homolog subfamily A member 1; details: lysates of transfected HEK293 cells; parent: 7
[4] = target: heat shock 70 kDa protein 1-like; details: lysates of transfected HEK293 cells; parent: 13
[5] = target: 78 kDa glucose-regulated protein precursor; details: lysates of transfected HEK293 cells; parent: 39
[6] = target: T1, 14-3-3, endogenous, P63104; details: chain shown with the change; lysates of transfected HEK293 cells; parent: -

Row | other: number of unique peptides (unique peptides) [1] | other: number of unique peptides (unique peptides) (ruvB-like 1) | other: number of unique peptides (unique peptides) [2] | other: number of unique peptides (unique peptides) (lamin-B1 isoform 1) | other: number of unique peptides (unique peptides) [3] | other: number of unique peptides (unique peptides) [4] | other: number of unique peptides (unique peptides) [5] | other: number of unique peptides (unique peptides) [6] | Molecule
1 | 6 | 2 | 2 | 3 | 4 | 12 | 34 | – | HA-tagged p27 wild type (from UniProt P46527) R30A; N31A; L32A
2 | – | – | – | – | – | – | – | 4 | HA-tagged p27 wild type, P46527 R30A; N31A; L32A (protein) MSNVRVSNGSPSLERMDARQAEHPKPSACAAAFGPVDHEELTRDLEKHCRDMEEASQRKWNFDFQNHKPLEGKYEWQEVEKGSLPEFYYRPPRPPKGACKVPAQESQDVSGSRPAAPLIGAPANSEDTHLVDPKTDPSDSQTGLAEQCAGIRKRPATDDSSTQNKRANRTEENVSDGSPNAGSVEQTPKKPGLRRRQT
